Assay results from PMC4802042, “A conserved motif in JNK/p38-specific MAPK phosphatases as a determinant for JNK1 recognition and inactivation” (Nature Communications, 2016).

Target: double-phosphorylated JNK1 (phospho-JNK1) (human, double-phosphorylated (sites not stated for this protein))
Experiment: cell-based or functional assay

phosphatase activity for JNK1 dephosphorylation, relative to wild-type MKP7-CD (Fig. 4a): ~10 fold
B1: MKP7-CD (F285D) (domain or fragment, human, UniProt Q9BY84 156-301, looked up)
chain: NIGPTRILPNLYLGCQRDVLNKELMQQNGIGYVLNASNTCPKPDFIPESHFLRVPVNDSFCEKILPWLDKSVDFIEKAKASNGCVLVHCLAGISRSATIAIAYIMKRMDMSLDEAYRFVKEKRPTISPNDNFLGQLLDYEKKIKNQ
